From patent publication US20080045455A1 (TRANSTECH PHARMA, published 2008) come the findings set out here.

In experiment [1] the target is Fc receptor on THP-1 cells. As to the kind of experiment: cell-based or functional assay.
Another experiment concerns the target T1, BSA (UniProt P02769 25-607).
T1 construct: also called BSA coating alone; BSA+wash
In words: ELISA, BSA-coated Maxisorb plate, dilutions of fusion protein, anti-human IgG1 immunodetection complex, A405. As to the method:
Known RAGE ligands were coated onto the surface of Maxisorb plates at a concentration of 5 micrograms per well. Plates were incubated at 4° C. overnight. Following ligand incubation, plates were aspirated and a blocking buffer of 1% BSA in 50 mM imidizole buffer (pH 7.2) was added to the plates for 1 hour at room temperature. The plates were then aspirated and/or washed with wash buffer (20 mM Imidizole, 150 mM NaCl, 0.05% Tween-20, 5 mM CaCl₂ and 5 mM MgCl₂, pH 7.2). […] The RAGE fusion protein was added at increasing dilutions of the initial sample. The RAGE fusion protein was allowed to incubate with the immobilized ligand at 37° C. for one hour after which the plate was washed and assayed for binding of the RAGE fusion protein. Binding was detected by the addition of an immunodetection complex containing a monoclonal mouse anti-human IgG1 diluted 1:11,000 to a final assay concentration (FAC) of 21 ng/100 μL, a biotinylated goat anti-mouse IgG diluted 1:500, to a FAC of […], and an avidin-linked alkaline phosphatase. […] Binding of the complex to the immobilized RAGE fusion protein was quantified by measuring conversion of PNPP to para-nitrophenol (PNP) which was measured spectrophotometrically at 405 nm.
On the technique in general: ELISA stands for enzyme-linked immunosorbent assay.

Where only a bound is given, the exact number is not on record here.

T1 sequence (P02769 25-607 limits assumed): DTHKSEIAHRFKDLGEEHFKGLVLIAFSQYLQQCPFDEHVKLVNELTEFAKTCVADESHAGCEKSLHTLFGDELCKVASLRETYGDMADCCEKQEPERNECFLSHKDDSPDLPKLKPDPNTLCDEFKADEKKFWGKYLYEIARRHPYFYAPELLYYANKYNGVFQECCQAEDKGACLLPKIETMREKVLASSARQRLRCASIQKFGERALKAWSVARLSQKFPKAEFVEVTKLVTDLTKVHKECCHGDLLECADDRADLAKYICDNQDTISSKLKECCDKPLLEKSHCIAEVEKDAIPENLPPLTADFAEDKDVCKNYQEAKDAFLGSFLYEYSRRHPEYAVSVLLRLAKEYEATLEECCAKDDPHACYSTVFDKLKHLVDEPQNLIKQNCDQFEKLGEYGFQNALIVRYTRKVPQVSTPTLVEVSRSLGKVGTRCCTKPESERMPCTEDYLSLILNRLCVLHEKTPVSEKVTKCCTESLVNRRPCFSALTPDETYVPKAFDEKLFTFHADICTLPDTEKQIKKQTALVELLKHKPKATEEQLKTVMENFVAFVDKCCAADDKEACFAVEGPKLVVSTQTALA

In the case of human IgG1 (heat aggregated) (antibody), in experiment [1], the TNF-α secreted by THP-1 cells on wells coated with 10 ug/well heat aggregated protein is above 40 ng/well.

B1: RAGE fusion protein TTP-3000 (Fc fusion)
chain: QNITARIGEPLVLKCKGAPKKPPQRLEWKLNTGRTEAWKVLSPQGGGPWDSVARVLPNGSLFLPAVGIQDEGIFRCQAMNRNGKETKSNYRVRVYQIPGKPEIVDSASELTAGPSVFLFPPKPKDTLMISRTPEVTCVVVDVSHEDPEVKFNWYVDGVEVHNAKTKPREEQYNSTYRVVSVLTVLHQDWLNGKEYKCKVSNKALPAPIEKTISKAKGQPREPQVYTLPPSRDELTKNQVSLTCLVKGFYPSDIAVEWESNGQPENNYKTTPPVLDSDGSFFLYSKLTVDKSRWQQGNVFSCSVMHEALHNHYTQKSLSLSPGK
modifications: N-terminal residue may be glutamine (Q) or pyroglutamic acid (pE) or a mixture thereof; C-terminal residue may be cleaved off
notes: the N-terminus of TTP-3000 was not confirmed by experiment; also called TT3; three domain RAGE fusion protein
As to B1, the binding result with BSA is listed as “no binding”.

B2: RAGE fusion protein TTP-4000 (Fc fusion)
chain: QNITARIGEPLVLKCKGAPKKPPQRLEWKLNTGRTEAWKVLSPQGGGPWDSVARVLPNGSLFLPAVGIQDEGIFRCQAMNRNGKETKSNYRVRVYQIPGKPEIVDSASELTAGVPNKVGTCVSEGSYPAGTLSWHLDGKPLVPNEKGVSVKEQTRRHPETGLFTLQSELMVTPARGGDPRPTFSCSFSPGLPRHRALRTAPIQPRVWEPVPLEEVQLVVEPEGGAVAPPSVFLFPPKPKDTLMISRTPEVTCVVVDVSHEDPEVKFNWYVDGVEVHNAKTKPREEQYNSTYRVVSVLTVLHQDWLNGKEYKCKVSNKALPAPIEKTISKAKGQPREPQVYTLPPSRDELTKNQVSLTCLVKGFYPSDIAVEWESNGQPENNYKTTPPVLDSDGSFFLYSKLTVDKSRWQQGNVFSCSVMHEALHNHYTQKSLSLSPGK
modifications: N-terminal residue glutamine (Q) or pyroglutamic acid (pE) or a mixture thereof; glycosylation sites at N2 and N288 (numbering of SEQ ID NO: 34 or 56); C-terminal residue of CH3 may be cleaved off
notes: Produced in CHO cells; also called TT4; four domain RAGE fusion protein
As to B2, the binding result in the experiment with BSA is listed as “no binding”.
